Patent US20040185525A1, “Process for producing peptide” (priority 2001, published 2004)

Target: T1, GPR8 (Homo sapiens, UniProt P48146)
T1 construct: expressed in transfected cells; host or cells: CHO cells (membrane fraction)
Test: GTPγS binding activity using a cell membrane fraction of CHO cells expressing GPR8
Type: biochemical
Conditions: fraction containing cell membrane of CHO cells expressing GPR8; compared with synthetic hGPR8L; process of Example 6 in WO 01/98494
Source text: FIG. 4 is a graph showing the GTPγS binding activity of hGPR8L (SEQ ID NO: 44) of Example 1 to 3 toward CHO cells expressing GPR8. The horizontal axis indicates the concentration of hGPR8L while the vertical axis indicates the GTPyS binding activity. The solid points (-•-) indicate the results obtained for a synthetic hGPR8L (SEQ ID NO: 44) while the open points (-∘-) indicate the results obtained for hGPR8L (SEQ ID NO: 44) produced by the method of the present invention (tandem repeat technique).
Using a fraction containing cell membrane of CHO cells expressing GPR8, the GTPγS binding activity of the hGPR8L obtained above was determined by the same process as described in Example 6 in WO 01/98494.

T1 sequence (P48146 whole entry): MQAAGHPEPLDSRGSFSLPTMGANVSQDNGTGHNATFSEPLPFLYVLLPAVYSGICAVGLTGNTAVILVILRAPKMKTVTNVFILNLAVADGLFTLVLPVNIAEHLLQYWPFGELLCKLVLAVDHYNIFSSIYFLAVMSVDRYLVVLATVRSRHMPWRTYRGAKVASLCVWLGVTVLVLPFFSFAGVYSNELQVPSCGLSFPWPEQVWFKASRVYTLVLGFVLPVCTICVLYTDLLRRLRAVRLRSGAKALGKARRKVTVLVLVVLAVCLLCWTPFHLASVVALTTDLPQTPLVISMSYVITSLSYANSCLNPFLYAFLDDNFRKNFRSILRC

For “hGPR8L: 23-residue ligand polypeptide for human GPR8 (SEQ ID NO: 44), produced by the tandem repeat technique in E. coli (WYKHVASPRYHTVGRAAGLLMGL; Human)”, the GTPγS binding activity was “equivalent to that of the artificially synthesized protein”.
